The values below are quoted from earlier work in paper PMC5969510, “Molecular mechanics of coiled coils loaded in the shear geometry” (Chemical Science, 2018).

For the data set the following is noted: unzip geometry. The text has this:
To overcome these limitations and to investigate the sequence–structure–mechanics relationship of coiled coils in more systematic detail, site-specific coupling strategies were used in more recent experiments so that the mechanical coordinate was precisely defined. Using coiled coil homodimers, the force was applied to both helices at the same terminus so that the coiled coils were mechanically loaded in the so-called ‘unzip’ geometry.[11],[17],[37],[38]

For “vimentin: intermediate filament protein with coiled coil (literature)”, the “unzipping (unfolding) force” value was 8–15 pN.
